B1: BglAc (Acidilobus sp. 7A; DEL298-307) (protein)
chain: MTVSFPKGFLFGWSQAGFQSEMGTPGSEDPNSDWYAWVHDRENIASGLVSGDLPENGPGYWGNYRRFHDAAQAMGLSAARIGVEWSRIFPKPTFDVKVHADVRGEEVASVDVSEQALEQLDRLANREAVNHYREMFSDLRSRGITFILNLYHWPLPLWLHDPIAIRRGNLSAPSGWLDVRAVVEFAKFAAYVAWKLDDLVYMYSTMNEPNVVWSHGFTQPKSGFPPGYLCFECSGKAMKNLLQAHARAYDIVKSMTKKPVGVIYATADWTPLTESEADRAAAEAAKAADRWAFFDMLGRLDWIGVNYYSRLVVRAGRSGFQVIPGYGFACEPNSVSPAGRPCSDFGWEFYPEGLYHALKDYWERYHLPLMVTENGAADEGDYLRPYYLVSHIYQVHRAMQEEVNVTGYLHWSLADNYEWASGFGKRFGLLMVDYETKRLYWRPSAFIYREIAKNNAITDEVEHLNRVPPLKPLRK
notes: N-terminal 6xHis tag, pET-30a(+) NdeI/EcoRI, E. coli BL21(DE3), Ni-NTA; residues Glu208, Glu383, Gln19, His152, Asn207, Glu428, Trp429
B2: BglAc (Acidilobus sp. 7A) (protein)
chain: MTVSFPKGFLFGWSQAGFQSEMGTPGSEDPNSDWYAWVHDRENIASGLVSGDLPENGPGYWGNYRRFHDAAQAMGLSAARIGVEWSRIFPKPTFDVKVHADVRGEEVASVDVSEQALEQLDRLANREAVNHYREMFSDLRSRGITFILNLYHWPLPLWLHDPIAIRRGNLSAPSGWLDVRAVVEFAKFAAYVAWKLDDLVYMYSTMNEPNVVWSHGFTQPKSGFPPGYLCFECSGKAMKNLLQAHARAYDIVKSMTKKPVGVIYATADWTPLTESEADRAAAEAAKAADRWAFFDMLSKGSPRDDLRGRLDWIGVNYYSRLVVRAGRSGFQVIPGYGFACEPNSVSPAGRPCSDFGWEFYPEGLYHALKDYWERYHLPLMVTENGAADEGDYLRPYYLVSHIYQVHRAMQEEVNVTGYLHWSLADNYEWASGFGKRFGLLMVDYETKRLYWRPSAFIYREIAKNNAITDEVEHLNRVPPLKPLRK
notes: as for B1

Experiments:
[1] = substrate: O=[N+]([O-])c1ccc(O[C@@H]2O[C@H](CO)[C@@H](O)[C@H](O)[C@H]2O)cc1; assay: cells, lysate or membranes; assay type: biochemical, Acidilobus sp. 7A; details: crude enzyme, mutant BglAcN, 30 bp deletion, printed as nine residues (…) at positions 298 to 307, pH 5.0
[2] = substrate: O=[N+]([O-])c1ccc(O[C@@H]2O[C@H](CO)[C@@H](O)[C@H](O)[C@H]2O)cc1; assay: purified protein; assay type: biochemical, Acidilobus sp. 7A; details: pH 5.0 sodium citrate, 100 °C, pNPG 0.2 to 2 mM

| Protein | Km [1] | Vmax [1] | kcat [1] | kcat/Km [1] | Km [2] | Vmax [2] | kcat [2] | kcat/Km [2] |
| --- | --- | --- | --- | --- | --- | --- | --- | --- |
| B1 | 8.58 mM | 288 µmol/min/mg | 260 s⁻¹ | 30300 M⁻¹ s⁻¹ |  |  |  |  |
| B2 |  |  |  |  | 3.41 mM | 474 µmol/min/mg | 418 s⁻¹ | 123000 M⁻¹ s⁻¹ |

Reference: PMC10974336, “Characterization of a Novel Hyperthermophilic GH1 β-Glucosidase from Acidilobus sp. and Its Application in the Hydrolysis of Soybean Isoflavone Glycosides” (Microorganisms, 2024)
